Data on nine molecules can be found in patent publication US20230192860A1 (Bristol-Myers Squibb, published 2023).

Broadly, the Kd is the concentration at which binding is half-saturated. Read a low Kd as a tighter complex. A word on the koff: it is a measure of how fast the partners let go of each other. High values mean a short-lived complex, low ones a long-lived complex. As a reminder, the kon is a measure of how fast the partners come together. High values mean fast association, low ones slow association.

Experiment [1] addresses T1, hVISTA-ECD 6-His tag (human, UniProt Q9H7M9 33-193).
T1 construct: also called monovalent hVISTA-ECD; human VISTA
Kind of experiment: SPR; KD at pH 6.9 over KD at pH 6.0 (head prints 7.4). The protocol: (§1) Further binding kinetic experiments were performed at various pHs on VISTA antibodies described herein by SPR as generally described in Example 9 above. Antibodies were normalized to 50 nM concentration in PBST pH 7.4 and captured on a Protein A CM5 chip (ID 4931) by injecting for 45 seconds at a 5 µL/min flow rate. An 8-point human VISTA titration ([…]) was prepared in PBST at pH 7.4, 6.9, 6.45, and 6.0. Titrations were injected over the captured antibodies for 180 seconds at 30 µL/min. Sensorgrams were fit to a 1:1 binding model in T200 evaluation software and the kinetic constants were reported.
(§2) Each table reports the data at one of the four tested pHs (7.4, 6.9, 6.45, and 6.0, respectively). The 8-point hVISTA titration used in these assays was chosen to provide increased confidence in kinetic values reported at neutral pH conditions. A relatively stringent cutoff for non-binding was applied in this assay. Certain progeny of P1-061029 antibody (P1-068757, ‘759, ‘765, ‘771, and ‘775) show no binding to hVISTA at micromolar concentrations at pH 7.4, while ‘761 and ‘767 show no binding to hVISTA at 100 nM at pH 7.4 but do show binding to hVISTA at micromolar concentrations.
A general note: In SPR one partner is held on a chip, and binding of the other changes the refractive index at the surface.

Experiment [2] has as its target T1, hVISTA-ECD 6-His tag. The experiment is described as follows: SPR; KD at pH 6.45 over KD at pH 6.0 (head prints 7.4).
The target of experiment [3] is T1, hVISTA-ECD 6-His tag. Kind of experiment: SPR, Ab on Protein A, hVISTA analyte, pH 6.9. On the procedure:
as §1, §2

The target in experiment [4] is T1, hVISTA-ECD 6-His tag. Kind of experiment: SPR; kd at pH 6.9 over kd at pH 6.0 (head prints 7.4). The protocol:
as §1, §2

Experiment [5] deals with T1, hVISTA-ECD 6-His tag. The experiment is described as follows: SPR; kd at pH 6.45 over kd at pH 6.0 (head prints 7.4). The protocol: as §1, §2
For experiment [6], the target named is T1, hVISTA-ECD 6-His tag. The experiment is described as follows: SPR, Ab on Protein A, hVISTA analyte, pH 6.45.
Experiment [7] has as its target T1, hVISTA-ECD 6-His tag. The experiment is described as follows: SPR, Ab on Protein A, hVISTA analyte, pH 6.0.

T1 sequence (Q9H7M9 other isoform, or with tags, fused parts or gaps limits assumed): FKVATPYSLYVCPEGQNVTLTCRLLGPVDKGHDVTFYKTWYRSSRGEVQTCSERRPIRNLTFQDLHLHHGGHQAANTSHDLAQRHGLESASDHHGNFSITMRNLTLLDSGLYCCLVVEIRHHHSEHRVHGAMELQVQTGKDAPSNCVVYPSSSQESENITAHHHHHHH

B1: P1-070868 (P1-068761_E55A) (antibody, human IgG1, kappa, V domains shown)
VH: EVQLVESGGGLVQPGKSLRLSCAASGFTLEDEAMHWVRQAPGKGLEWVSGINWNSAEIGYADSVKGRFTISRDNAKNSLYLQMNSLRTEDTALYYCAKVPGYSHGWIDAEDVWGQGTMVTVSS
VL: not shown
notes: also called P1-070868-6
For the molecule B1, the “7.4 KD/ 6.0 KD” value was found to be 1240 in experiment [1] and 6.7 in experiment [2]. The Kd in experiment [3] amounted to 6.7 µM; in experiment [6], 0.036 µM; in experiment [7], 0.0054 µM. The koff in experiment [3] was 0.015 s⁻¹; in experiment [6] it was 0.0087 s⁻¹; in experiment [7], 0.0023 s⁻¹. Moreover, the kon stood at 2300 M⁻¹ s⁻¹ in experiment [3], 240000 M⁻¹ s⁻¹ in experiment [6] and 430000 M⁻¹ s⁻¹ in experiment [7]. The “7.4 kd/ 6.0 kd” value in experiment [4] worked out at 6.5; in experiment [5] it was 3.7.

B2: P1-070900 (P1-068761_E56N_H100G) (antibody, human IgG1, kappa, V domains shown)
VH: EVQLVESGGGLVQPGKSLRLSCAASGFTLEDEAMHWVRQAPGKGLEWVSGINWNSENIGYADSVKGRFTISRDNAKNSLYLQMNSLRTEDTALYYCAKVPGYSGGWIDAEDVWGQGTMVTVSS
VL: not shown
notes: also called P1-070900-3
For the molecule B2, the entries for the “7.4 KD/ 6.0 KD” value in experiment [1] and in experiment [2] were 222 and 8, respectively. In addition, the Kd in experiment [3] amounted to 3.7 µM; in experiment [6], 0.13 µM; in experiment [7], 0.017 µM. Further, the results for the koff in experiment [3], in experiment [6] and in experiment [7] were 0.031 s⁻¹, 0.06 s⁻¹ and 0.0084 s⁻¹, respectively. For the same molecule, the kon was 8500 M⁻¹ s⁻¹ in experiment [3], 450000 M⁻¹ s⁻¹ in experiment [6] and 500000 M⁻¹ s⁻¹ in experiment [7]. Also, the entries for the “7.4 kd/ 6.0 kd” value in experiment [4] and in experiment [5] were 3.7 and 7.1, respectively.

B3: P1-070872 (P1-068761_H100G) (antibody, human IgG1, kappa, V domains shown)
VH: EVQLVESGGGLVQPGKSLRLSCAASGFTLEDEAMHWVRQAPGKGLEWVSGINWNSEEIGYADSVKGRFTISRDNAKNSLYLQMNSLRTEDTALYYCAKVPGYSGGWIDAEDVWGQGTMVTVSS
VL: not shown
notes: also called P1-070872-4
In the case of B3, the “7.4 KD/ 6.0 KD” value was 1820 in experiment [1] and 8.3 in experiment [2]. In addition, the figures for the Kd in experiment [3], in experiment [6] and in experiment [7] were 15 µM, 0.068 µM and 0.0082 µM, respectively. Besides, the koff in experiment [3] was found to be 0.028 s⁻¹; in experiment [6] it was 0.025 s⁻¹; in experiment [7], 0.0056 s⁻¹. Moreover, the results for the kon in experiment [3], in experiment [6] and in experiment [7] were 1900 M⁻¹ s⁻¹, 360000 M⁻¹ s⁻¹ and 680000 M⁻¹ s⁻¹, respectively. Also, the “7.4 kd/ 6.0 kd” value in experiment [4] was 5.1; in experiment [5] it was 4.5.

B4: P1-070904 (P1-068767_E30D) (antibody, human IgG1, kappa, V domains shown)
VH: EVQLVESGGGLVQPGKSLRLSCAASGFTLDDYAMHWVRQAPGKGLEWVSGIDWNSENIGYADSVKGRFTISRDNAKNSLYLQMNSLRTEDTALYYCAKVPGYSGGWIDAEDDWGQGTMVTVSS
VL: not shown
notes: also called P1-070904-3
As to B4, the “7.4 KD/ 6.0 KD” value in experiment [1] was found to be 14.9; in experiment [2] it was 4.1. The Kd in experiment [3] worked out at 0.25 µM; in experiment [6] it was 0.068 µM; in experiment [7] it was 0.017 µM. The koff was determined as 0.028 s⁻¹ in experiment [3], 0.0086 s⁻¹ in experiment [6] and 0.0038 s⁻¹ in experiment [7]. Also, the results for the kon in experiment [3], in experiment [6] and in experiment [7] were 110000 M⁻¹ s⁻¹, 130000 M⁻¹ s⁻¹ and 230000 M⁻¹ s⁻¹, respectively. Further, the “7.4 kd/ 6.0 kd” value in experiment [4] is 7.2; in experiment [5], 2.3.

B5: P1-070890 (P1-068761_E30D_E55A) (antibody, human IgG1, kappa, V domains shown)
VH: EVQLVESGGGLVQPGKSLRLSCAASGFTLDDEAMHWVRQAPGKGLEWVSGINWNSAEIGYADSVKGRFTISRDNAKNSLYLQMNSLRTEDTALYYCAKVPGYSHGWIDAEDVWGQGTMVTVSS
VL: not shown
notes: also called P1-070890-3
For B5, the entries for the “7.4 KD/ 6.0 KD” value in experiment [1] and in experiment [2] were 211 and 6.3, respectively. For the same molecule, the Kd was found to be 4.4 µM in experiment [3], 0.13 µM in experiment [6] and 0.021 µM in experiment [7]. In addition, the results for the koff in experiment [3], in experiment [6] and in experiment [7] were 0.04 s⁻¹, 0.032 s⁻¹ and 0.0081 s⁻¹, respectively. For the same molecule, the kon is 9000 M⁻¹ s⁻¹ in experiment [3], 240000 M⁻¹ s⁻¹ in experiment [6] and 390000 M⁻¹ s⁻¹ in experiment [7]. Further, the “7.4 kd/ 6.0 kd” value in experiment [4] worked out at 4.9; in experiment [5] it was 3.9.

B6: P1-070878 (P1-068761_E55A_E56N) (antibody, human IgG1, kappa, V domains shown)
VH: EVQLVESGGGLVQPGKSLRLSCAASGFTLEDEAMHWVRQAPGKGLEWVSGINWNSANIGYADSVKGRFTISRDNAKNSLYLQMNSLRTEDTALYYCAKVPGYSHGWIDAEDVWGQGTMVTVSS
VL: not shown
notes: also called P1-070878-3
Consider B6, for which the “7.4 KD/ 6.0 KD” value in experiment [1] is 301; in experiment [2], 4.9. The results for the Kd in experiment [3], in experiment [6] and in experiment [7] were 9.8 µM, 0.16 µM and 0.033 µM, respectively. Also, the koff in experiment [3] was found to be 0.028 s⁻¹; in experiment [6], 0.012 s⁻¹; in experiment [7], 0.0063 s⁻¹. The results for the kon in experiment [3], in experiment [6] and in experiment [7] were 2900 M⁻¹ s⁻¹, 78000 M⁻¹ s⁻¹ and 190000 M⁻¹ s⁻¹, respectively. In addition, the “7.4 kd/ 6.0 kd” value in experiment [4] worked out at 4.5; in experiment [5], 2.

B7: P1-070906 (P1-068767_D52N) (antibody, human IgG1, kappa, V domains shown)
VH: EVQLVESGGGLVQPGKSLRLSCAASGFTLEDYAMHWVRQAPGKGLEWVSGINWNSENIGYADSVKGRFTISRDNAKNSLYLQMNSLRTEDTALYYCAKVPGYSGGWIDAEDDWGQGTMVTVSS
VL: not shown
notes: also called P1-070906-6
B7: the “7.4 KD/ 6.0 KD” value stood at 36.5 in experiment [1] and 5.1 in experiment [2]. In addition, the Kd in experiment [3] worked out at 0.22 µM; in experiment [6], 0.031 µM; in experiment [7], 0.006 µM. Besides, the koff in experiment [3] is 0.0084 s⁻¹; in experiment [6], 0.0039 s⁻¹; in experiment [7], 0.0019 s⁻¹. For the same molecule, the kon is 38000 M⁻¹ s⁻¹ in experiment [3], 130000 M⁻¹ s⁻¹ in experiment [6] and 310000 M⁻¹ s⁻¹ in experiment [7]. Also, the “7.4 kd/ 6.0 kd” value stood at 4.4 in experiment [4] and 2.1 in experiment [5].

B8: P1-070870 (P1-068761_E56N) (antibody, human IgG1, kappa, V domains shown)
VH: EVQLVESGGGLVQPGKSLRLSCAASGFTLEDEAMHWVRQAPGKGLEWVSGINWNSENIGYADSVKGRFTISRDNAKNSLYLQMNSLRTEDTALYYCAKVPGYSHGWIDAEDVWGQGTMVTVSS
VL: not shown
notes: also called P1-070870-3
Take B8: the “7.4 KD/ 6.0 KD” value in experiment [1] turned out to be 316; in experiment [2] it was 4.6. Further, the results for the Kd in experiment [3], in experiment [6] and in experiment [7] were 10 µM, 0.15 µM and 0.032 µM, respectively. The off-rate constant (koff) in experiment [3] is 0.049 s⁻¹; in experiment [6], 0.012 s⁻¹; in experiment [7], 0.0063 s⁻¹. For the same molecule, the results for the kon in experiment [3], in experiment [6] and in experiment [7] were 4900 M⁻¹ s⁻¹, 80000 M⁻¹ s⁻¹ and 200000 M⁻¹ s⁻¹, respectively. The “7.4 kd/ 6.0 kd” value in experiment [4] was 7.9; in experiment [5] it was 1.9.

B9: P1-070908 (P1-068767_E55A) (antibody, human IgG1, kappa, V domains shown)
VH: EVQLVESGGGLVQPGKSLRLSCAASGFTLEDYAMHWVRQAPGKGLEWVSGIDWNSANIGYADSVKGRFTISRDNAKNSLYLQMNSLRTEDTALYYCAKVPGYSGGWIDAEDDWGQGTMVTVSS
VL: not shown
notes: also called P1-070908-6
Consider B9, for which the “7.4 KD/ 6.0 KD” value in experiment [1] came out at 23; in experiment [2], 5.2. Also, the Kd in experiment [3] stood at 0.24 µM; in experiment [6], 0.054 µM; in experiment [7] it was 0.01 µM. Moreover, the koff in experiment [3] was determined as 0.012 s⁻¹; in experiment [6] it was 0.006 s⁻¹; in experiment [7] it was 0.0028 s⁻¹. For the same molecule, the kon in experiment [3] stood at 51000 M⁻¹ s⁻¹; in experiment [6], 110000 M⁻¹ s⁻¹; in experiment [7], 270000 M⁻¹ s⁻¹. In addition, the “7.4 kd/ 6.0 kd” value is 4.4 in experiment [4] and 2.2 in experiment [5].
